{"source": "patent EP1140148B1", "about": "“SHELF-STABLE SOLUTION FORMULATION OF GLUCAGON-LIKE PEPTIDE-1” (ELI LILLY AND COMPANY, priority 1998, dated 2005)", "origin": "cited, not measured here", "conditions": "stored at 4° C; as early as; Mojsov 1992", "data": [{"substance": "GLP-1(7-37): Glucagon-like peptide-1 (7-37), insulinotropic peptide hormone", "values": [{"measurement": "by-products found after sample preparation", "result": "eleven"}]}]}
